Km, kcat and kcat/Km data for six proteins are collected here from US5162203A, “Methods of measuring isozymes and isozyme classes of alcohol dehydrogenase” (President and Fellows of Harvard College, priority 1989, dated 1992).

What all share (type): biochemical, human
Substrate in data set [1]: COc1ccc2cc(C=O)ccc2c1
Description: Kinetics of enzymatic reduction of methoxynaphthaldehydes by γ1γ1 ADH. As to conditions: other: pH 7.0, 50 μM NADH, fluorometric, 25.0 °C.

Substrate in data set [2]: COc1ccc(C=O)c2ccccc12
The data set is described as above. The following applies: other: pH 7.0, 50 μM NADH, fluorometric, 25.0 °C.

Substrate in data set [3]: COc1ccc2cc(C=O)ccc2c1
Description: Kinetics of enzymatic reduction of methoxynaphthaldehydes by Class III ADH. The following applies: other: pH 7.0, 50 μM NADH, 25.0 °C.

Substrate in data set [4]: COc1ccc2cc(C=O)ccc2c1
Description: Kinetics of enzymatic reduction of methoxynaphthaldehydes by αβ1 ADH. As to conditions: other: pH 7.0, 50 μM NADH, spectrophotometric, 25.0 °C. On the procedure: (§1) Standard assays for ethanol oxidation activity (Dalziel, 1957, Acta Chem Scand 11:1706-23) were carried out on a Cary 219 spectrophotometer interfaced with an Apple IIe microcomputer, using software provided by Varian Associates. The reaction mixture contained 2.5 mM NAD^+ in 0.1M glycine-NaOH buffer. pH 10.0, and 33 mM or 0.2M ethanol for Class I and Class II ADH, respectively.
(§2) Aldehyde reduction was monitored by following the decrease of absorption at 340 nm in 40 mM Mes buffer, pH 7.1. in the presence of saturating NADH, 50 μM for Class I and 100 μM for Class II. […] Initial reaction rates were measured and kinetic parameters determined by conventional procedures as described by Segel, 1975, Enzyme Kinetics, pp. 591-597, Wiley, N.Y.
(§3) All reaction mixtures (3 ml total volume) were prepared directly in 1 cm pathlength, 4 ml fluorometric cuvettes by adding 150 μl of the 300 μM substrate solution (e.g substrate IA or IIA) 100 μl of the 1 mM NADH solution (prepared as in part 5 above) and 2.69 ml of assay buffer (0.1M phosphate, pH 7.6). After thermal equilibration (25° C.) for 5 minutes, 60 μl of isozyme sample (either serum or purified ADH isozymes) was added to the cuvette.
(§4) The linear increase of fluorescence was then recorded for 1-10 minutes, until 0.03-1 μM of substrate was consumed. Larger substrate consumption was not found to be desirable (described in subpart (c) below). After this period the instrument sensitivity setting was reduced 10-30 fold, the signal compensated once again by zero suppression (see part 6 above), and 60 μl of 200-400 μM product (e.g., product IB or IIB) was added to provide an internal standard. The added product fluorescence intensity was then measured Fluorescence measurements were optimized for samples with low activity (<1 nM/minute). […] Rates measured in the presence of the 0.2 mM ADH inhibitors. […]
(§5) The rates of aldehyde reduction, determined as initial velocities (V) and expressed in units of nM/minute, were calculated according to: [formula] where the quantity in parentheses is the slope of the linear fluorescence increase calculated from the quantities Ft and FO, the fluorescence at time t and at the beginning of the reaction, respectively. Cst is the concentration of the product used as a standard added to the cuvette after the initial rate had been measured and Fst is the fluorescence intensity of the added product
(§6) Additionally the reaction rates for these isozymes were compared to those measured by the standard assay for ethanol oxidation (see part 7 above) at pH 10.0 the optimum for oxidation of ethanol by ADH. The rate of IA reduction for all Class I isozymes except the β1 β1 form is 1.5- to 4-fold faster than that of ethanol oxidation as measured by the conventional ethanol oxidation assay. […]

Substrate in data set [5]: COc1ccc(C=O)c2ccccc12
The data set is described as above. As to conditions: other: pH 7.0, 50 μM NADH, spectrophotometric, 25.0 °C. As for the experimental part:
as §1, §2, §3, §4, §5, §6

Substrate in data set [6]: COc1ccc2cc(C=O)ccc2c1
Description: Kinetics of enzymatic reduction of methoxynaphthaldehydes by αγ1 ADH. As to conditions: other: pH 7.0, 50 μM NADH, fluorometric, 25.0 °C.

Substrate in data set [7]: COc1ccc(C=O)c2ccccc12
The description is as above. The following applies: other: pH 7.0, 50 μM NADH, fluorometric, 25.0 °C.

Substrate in data set [8]: COc1ccc2cc(C=O)ccc2c1
Description: Kinetics of enzymatic reduction of methoxynaphthaldehydes by Class II ADH. As to conditions: other: pH 7.0, 50 μM NADH; spectrophotometric; pH 7.0; 25.0 °C.

Substrate in data set [9]: COc1ccc(C=O)c2ccccc12
The data set is described as above. The following applies: 25.0 °C.

Substrate in data set [10]: COc1ccc2cc(C=O)ccc2c1
Description: Kinetics of enzymatic reduction of methoxynaphthaldehydes by β1γ1 ADH. As to conditions: other: pH 7.0, 50 μM NADH, fluorometric, 25.0 °C.

Substrate in data set [11]: COc1ccc(C=O)c2ccccc12
The data set is described as above. As to conditions: other: pH 7.0, 50 μM NADH, fluorometric, 25.0 °C.

Setting [12] is: other: pH 7.0, 50 μM NADH, spectrophotometric, pH 7.0.

B1: γ1 γ1 ADH (Class I) (Homo sapiens) (protein)
chain: STAGKVIKCKAAVLWELKKPFSIEEVEVAPPKAHEVRIKMVAAGICRSDEHVVSGNLVTPLPVILGHEAAGIVESVGEGVTTVKPGDKVIPLFTPQCGKCRICKNPESNYCLKNDLGNPRGTLQDGTRRFTCSGKPIHHFVGVSTFSQYTVVDENAVAKIDAASPLEKVCLIGCGFSTGYGSAVKVAKVTPGSTCAVFGLGGVGLSVVMGCKAAGAARIIAVDINKDKFAKAKELGATECINPQDYKKPIQEVLKEMTDGGVDFSFEVIGRLDTMMASLLCCHEACGTSVIVGVPPDSQNLSINPMLLLTGRTWKGAIFGGFKSKESVPKLVADFMAKKFSLDALITNILPFEKINEGFDLLRSGKSIRTVLTF
notes: gamma1 allele (ADH1C*1, Arg271 and Ile349 in mature count)
The Km is the concentration of substrate that gives half-maximal velocity. One may read the kcat as the number of substrate molecules converted per active site and unit of time at saturation. As to B1, in data set [1], the Km turned out to be 0.35 µM and the kcat was 1.83 s⁻¹. Also, in [2], the Michaelis constant (Km) was determined as 2.30 µM and the kcat was 10.2 s⁻¹.

B2: Class III (.chi.) ADH (Homo sapiens) (protein)
chain: MANEVIKCKAAVAWEAGKPLSIEEIEVAPPKAHEVRIKIIATAVCHTDAYTLSGADPEGCFPVILGHEGAGIVESVGEGVTKLKAGDTVIPLYIPQCGECKFCLNPKTNLCQKIRVTQGKGLMPDGTSRFTCKGKTILHYMGTSTFSEYTVVADISVAKIDPLAPLDKVCLLGCGISTGYGAAVNTAKLEPGSVCAVFGLGGVGLAVIMGCKVAGASRIIGVDINKDKFARAKEFGATECINPQDFSKPIQEVLIEMTDGGVDYSFECIGNVKVMRAALEACHKGWGVSVVVGVAASGEEIATRPFQLVTGRTWKGTAFGGWKSVESVPKLVSEYMSKKIKVDEFVTHNLSFDEINKAFELMHSGKSIRTVVKI
The kcat/Km is the turnover number divided by the Michaelis constant. With B2, the kcat/Km in data set [3] amounted to 830 M⁻¹ s⁻¹.

B3: αβ1 ADH (Class I) (Homo sapiens) (protein)
chain 1: STAGKVIKCKAAVLWELKKPFSIEEVEVAPPKAHEVRIKMVAVGICGTDDHVVSGTMVTPLPVILGHEAAGIVESVGEGVTTVKPGDKVIPLAIPQCGKCRICKNPESNYCLKNDVSNPQGTLQDGTSRFTCRRKPIHHFLGISTFSQYTVVDENAVAKIDAASPLEKVCLIGCGFSTGYGSAVNVAKVTPGSTCAVFGLGGVGLSAIMGCKAAGAARIIAVDINKDKFAKAKELGATECINPQDYKKPIQEVLKEMTDGGVDFSFEVIGRLDTMMASLLCCHEACGTSVIVGVPPDSQNLSMNPMLLLTGRTWKGAILGGFKSKECVPKLVADFMAKKFSLDALITHVLPFEKINEGFDLLHSGKSIRTILMF
chain 2: STAGKVIKCKAAVLWEVKKPFSIEDVEVAPPKAYEVRIKMVAVGICHTDDHVVSGNLVTPLPVILGHEAAGIVESVGEGVTTVKPGDKVIPLFTPQCGKCRVCKNPESNYCLKNDLGNPRGTLQDGTRRFTCRGKPIHHFLGTSTFSQYTVVDENAVAKIDAASPLEKVCLIGCGFSTGYGSAVNVAKVTPGSTCAVFGLGGVGLSAVMGCKAAGAARIIAVDINKDKFAKAKELGATECINPQDYKKPIQEVLKEMTDGGVDFSFEVIGRLDTMMASLLCCHEACGTSVIVGVPPASQNLSINPMLLLTGRTWKGAVYGGFKSKEGIPKLVADFMAKKFSLDALITHVLPFEKINEGFDLLHSGKSIRTVLTF
notes: beta1 allele (ADH1B*1, Arg47 and Arg369 in mature count)
In the case of B3, in [4], the Km was 11.5 µM and the turnover number (kcat) turned out to be 2.67 s⁻¹. In data set [5], the Km came to 8.5 µM and the kcat was 7.5 s⁻¹.

B4: αγ1 ADH (Class I) (Homo sapiens) (protein)
chain 1: STAGKVIKCKAAVLWELKKPFSIEEVEVAPPKAHEVRIKMVAVGICGTDDHVVSGTMVTPLPVILGHEAAGIVESVGEGVTTVKPGDKVIPLAIPQCGKCRICKNPESNYCLKNDVSNPQGTLQDGTSRFTCRRKPIHHFLGISTFSQYTVVDENAVAKIDAASPLEKVCLIGCGFSTGYGSAVNVAKVTPGSTCAVFGLGGVGLSAIMGCKAAGAARIIAVDINKDKFAKAKELGATECINPQDYKKPIQEVLKEMTDGGVDFSFEVIGRLDTMMASLLCCHEACGTSVIVGVPPDSQNLSMNPMLLLTGRTWKGAILGGFKSKECVPKLVADFMAKKFSLDALITHVLPFEKINEGFDLLHSGKSIRTILMF
chain 2: STAGKVIKCKAAVLWELKKPFSIEEVEVAPPKAHEVRIKMVAAGICRSDEHVVSGNLVTPLPVILGHEAAGIVESVGEGVTTVKPGDKVIPLFTPQCGKCRICKNPESNYCLKNDLGNPRGTLQDGTRRFTCSGKPIHHFVGVSTFSQYTVVDENAVAKIDAASPLEKVCLIGCGFSTGYGSAVKVAKVTPGSTCAVFGLGGVGLSVVMGCKAAGAARIIAVDINKDKFAKAKELGATECINPQDYKKPIQEVLKEMTDGGVDFSFEVIGRLDTMMASLLCCHEACGTSVIVGVPPDSQNLSINPMLLLTGRTWKGAIFGGFKSKESVPKLVADFMAKKFSLDALITNILPFEKINEGFDLLRSGKSIRTVLTF
notes: as for B1
B4: the Km was 0.58 µM in data set [6] and 2.8 µM in data set [7]. Besides, the kcat in data set [6] is 2.5 s⁻¹; in data set [7], 8.33 s⁻¹.

B5: Class II (π) ADH (Homo sapiens) (protein)
chain: MGTKGKVIKCKAAIAWEAGKPLCIEEVEVAPPKAHEVRIQIIATSLCHTDATVIDSKFEGLAFPVIVGHEAAGIVESIGPGVTNVKPGDKVIPLYAPLCRKCKFCLSPLTNLCGKISNLKSPASDQQLMEDKTSRFTCKGKPVYHFFGTSTFSQYTVVSDINLAKIDDDANLERVCLLGCGFSTGYGAAINNAKVTPGSTCAVFGLGGVGLSAVMGCKAAGASRIIGIDINSEKFVKAKALGATDCLNPRDLHKPIQEVIIELTKGGVDFALDCAGGSETMKAALDCTTAGWGSCTFIGVAAGSKGLTIFPEELIIGRTINGTFFGGWKSVDSIPKLVTDYKNKKFNLDALVTHTLPFDKISEAFDLMNQGKSVRTILIF
As for B5, the Km in [8] came to 2.6 µM; in data set [9] (setting [12]), 20.0 µM. For the same protein, the values for the turnover number (kcat) in [8], in data set [9] (other: Class II) and in [9] (setting [12]) were 25 s⁻¹, 0.667 s⁻¹ and 0.833 s⁻¹, respectively.

B6: β1 γ1 ADH (Class I) (Homo sapiens) (protein)
chain 1: MSTAGKVIKCKAAVLWEVKKPFSIEDVEVAPPKAYEVRIKMVAVGICHTDDHVVSGNLVTPLPVILGHEAAGIVESVGEGVTTVKPGDKVIPLFTPQCGKCRVCKNPESNYCLKNDLGNPRGTLQDGTRRFTCRGKPIHHFLGTSTFSQYTVVDENAVAKIDAASPLEKVCLIGCGFSTGYGSAVNVAKVTPGSTCAVFGLGGVGLSAVMGCKAAGAARIIAVDINKDKFAKAKELGATECINPQDYKKPIQEVLKEMTDGGVDFSFEVIGRLDTMMASLLCCHEACGTSVIVGVPPASQNLSINPMLLLTGRTWKGAVYGGFKSKEGIPKLVADFMAKKFSLDALITHVLPFEKINEGFDLLHSGKSIRTVLTF
chain 2: MSTAGKVIKCKAAVLWELKKPFSIEEVEVAPPKAHEVRIKMVAAGICRSDEHVVSGNLVTPLPVILGHEAAGIVESVGEGVTTVKPGDKVIPLFTPQCGKCRICKNPESNYCLKNDLGNPRGTLQDGTRRFTCSGKPIHHFVGVSTFSQYTVVDENAVAKIDAASPLEKVCLIGCGFSTGYGSAVKVAKVTPGSTCAVFGLGGVGLSVVMGCKAAGAARIIAVDINKDKFAKAKELGATECINPQDYKKPIQEVLKEMTDGGVDFSFEVIGRLDTMMASLLCCHEACGTSVIVGVPPDSQNLSINPMLLLTGRTWKGAIFGGFKSKESVPKLVADFMAKKFSLDALITNILPFEKINEGFDLLRSGKSIRTVLTF
notes: beta1 (ADH1B*1) and gamma1 (ADH1C*1) alleles
Regarding B6, in data set [10], the Michaelis constant (Km) was determined as 0.40 µM and the kcat came out at 2.83 s⁻¹. Also, in [11], the Km turned out to be 0.60 µM and the turnover number (kcat) was determined as 4.42 s⁻¹.
